Paper PMC8028046 (2021)

Molecular target: amyloid-beta fibrils (Homo sapiens, UniProt P05067)
Test: SPR

Sequence of amyloid-beta fibrils (P05067 672-713): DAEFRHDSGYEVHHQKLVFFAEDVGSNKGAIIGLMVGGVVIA

B1: proSP-C BRICHOS BRICHOS (protein)
chain: TATFSIGSTGLVVYDYQQLLIAYKPAPGTCCYIMKIAPESIPSLEALTRKVHNFQMECSLQAKPAVPTSKLGQAEGRDAGSAPSGGDPAFLGMAVSTLCGEVPLYYI
- Kd: ~130 nM
